Reference: patent US20240209399A1

Biological target: TnsC-BP-NLS-VP64 (plasmid pSL2783, p6A_hCO_Vch_TnsC_BP-NLS-VP64) (Vibrio cholerae)
Test: cell-based or functional assay

TnsABf (plasmid pSL2669, pcDNA3.1_hCO_Vch_TnsA_BP-NLS_TnsB)
level of transcriptional activation (mCherry MFI relative to the non-targeting control, HEK293T reporter assay): 2 fold
